The values that follow come from US20210300992A1 (Stanford University, published 2021).

The target in assay [1] is T1, human leukemia inhibitory factor (LIF), soluble (human, UniProt P15018 23-202). In words: cell-based or functional assay.
Assay [2] concerns the target T1, human leukemia inhibitory factor (LIF), …. Kind of assay: KinExA with soluble human LIF; inhibitor titrated. The method, then:
(§1) Binding of the purified LIF inhibitors to soluble LIF was tested using KinExA. Shown in FIG. 10 are binding results for: (1) a homodimer having a WT LIFR CBMI-Ig-like-CBMII Fc fusion as each monomer; (2) a homodimer having LIFR […] Fc as each monomer;

Assay [3] shares this target. In words: KinExA, purified Fc fusion with soluble human LIF; reference LIFR-WT-Fc. On the procedure: as §1
(§2) and (3) a homodimer having LIFR-gp130 V-E fusion Fc as each monomer. KD values calculated from KinExA software and fitted curves are shown.

For assay [4] the target is unchanged. Kind of assay: KinExA with soluble human LIF; KD calculated by the KinExA software. On the procedure: as §1
For assay [5] the target is unchanged. In words: KinExA, purified Fc fusion with soluble human LIF.
In assay [6] the target is T2, wild-type human gp130 CBM domain displayed on the surface of yeast (human, UniProt P40189 124-324).
T2 construct: also called gp130 wild-type (WT); wild-type gp130
T2 chain: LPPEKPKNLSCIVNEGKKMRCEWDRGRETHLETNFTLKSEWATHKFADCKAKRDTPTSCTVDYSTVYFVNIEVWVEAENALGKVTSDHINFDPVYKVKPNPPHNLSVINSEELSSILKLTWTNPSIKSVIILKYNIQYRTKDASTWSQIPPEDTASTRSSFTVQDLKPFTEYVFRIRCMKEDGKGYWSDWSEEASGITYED
Kind of assay: yeast-displayed receptor, no LIF added, anti-Fc detection by flow cytometry. In general terms: Flow cytometry measures light scatter and fluorescence of single cells or particles in a stream.

Assay [7] deals with T3, wild-type human LIFR displayed on the surface of yeast (human, UniProt P42702 45-534, limits assumed).
T3 construct: also called LIFR wild-type (WT); wild-type LIFR
T3 sequence: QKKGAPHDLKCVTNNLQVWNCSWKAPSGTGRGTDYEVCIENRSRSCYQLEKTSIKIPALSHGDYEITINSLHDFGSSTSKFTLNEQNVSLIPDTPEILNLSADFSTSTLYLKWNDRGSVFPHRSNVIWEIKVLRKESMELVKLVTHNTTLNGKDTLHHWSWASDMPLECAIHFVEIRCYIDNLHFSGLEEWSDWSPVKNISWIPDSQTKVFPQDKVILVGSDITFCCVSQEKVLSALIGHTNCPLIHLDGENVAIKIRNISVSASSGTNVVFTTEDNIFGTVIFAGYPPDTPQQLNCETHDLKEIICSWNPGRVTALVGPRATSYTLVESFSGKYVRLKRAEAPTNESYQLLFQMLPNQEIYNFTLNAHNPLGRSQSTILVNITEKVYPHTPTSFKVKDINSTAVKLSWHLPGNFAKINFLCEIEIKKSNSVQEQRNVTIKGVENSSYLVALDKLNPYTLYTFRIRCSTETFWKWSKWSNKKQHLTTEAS
The description is as above.

Assay [8] deals with T1, human leukemia inhibitory factor (LIF), …. Kind of assay: yeast surface display titration with human LIF, flow cytometry. The method, then: (§3) Binding to human LIF was measured via fluorescent antibody detection using flow cytometry.
For assay [9] the target is unchanged. In words: yeast surface display titration with human LIF, flow cytometry; reference yeast-displayed gp130 WT. The method, then: as §3
Results for gp130 wild-type (WT) (circles), the “8M” variant (E4K-K5R-N14D-K45E-F46L-K83R-Y95D-N100S) (squares), and the ELDME variant (mutations in FIG. 4, panel A) (triangles) are shown.

A further assay deals with T4, human LIF-His (human, UniProt P15018 23-202).
T4 construct: also called soluble LIF-His; not shown: His6 tag
In words: competition on yeast: displayed wild-type LIFR or gp130 saturated with LIF-His, inhibitor added in excess; anti-His signal normalized to LIF alone. The method, then: FIG. 14 LIF inhibitors compete LIF away from wild-type receptors. Panel A: Schematic illustration of competitive binding assay. […] Human LIF-His is incubated at saturating concentrations. Inhibitors (LIFR-[…]-Fc depicted) are then co-incubated with LIF-bound yeast, in excess. LIF binding is detected via His6-tag on LIF. The less LIF that remains bound after inhibitor incubation, the better the inhibitor is able to compete LIF away from the WT receptor. Panel B: Results from competitive binding experiment. […] Fraction bound is the fluorescent emission detected from the LIF-His, normalized to No Inhibitor added. Competitive binding of LIFR-WT-Fc, gp130-ELDME-Fc (Eng.), LIFR-[…]-Fc (Eng.), LIFR-gp130 Fusion-Fc (Eng.), LIFR-gp130 Heterodimeric Fc (Eng.), Anti-LIF mAb L1, and Anti-LIF mAb G1 are shown.
Human LIF-His is introduced at saturating concentrations. Inhibitors (LIFR-[…]-Fc depicted) are then co-incubated with LIF-bound yeast, in excess. LIF binding is detected via His6-tag on LIF. The less LIF that remains bound after inhibitor incubation, the better the inhibitor is able to compete LIF away from the WT receptor.

For assay [10], the target named is T1, human leukemia inhibitory factor (LIF), …. Kind of assay: KinExA with soluble human LIF; KD calculated by the KinExA software. The unit is written as printed; the curve lies beside that of LIFR VPRVVAID Fc (Kd in pM). On the procedure: as §1, §2
For assay [11] the target is unchanged. Kind of assay: yeast surface display titration with human LIF, flow cytometry; reference yeast-displayed LIFR WT. The method, then: as §3
Results for LIFR wild-type (WT) (circles), the “PDD” variant (L218P-N42D-N277D) (squares), and the […] variant (mutations in FIG. 4, panel A) (triangles) are shown.

B1: LIFR CBMI-Ig-like-CBMII (VPRVVAID) Fc fusion homodimer (Fc fusion)
chain: QKKGAPHDLKCVTNNLQVWNCSWKAPSGTGRGTDYEVCIENRSRSCYQLEKTSIKIPALSHGDYEITINSLHDFGSSTSKFTLNEQNVSLIPDTPEILNLSADFSTSTLYLKWNDRGSVFPHRSNVIWEIKVLRKESMELVKLVTHNTTLNGKDTLHHWSWASDMPLECAIHFVEIRCYIDNLHFSGLEEWSDWSPVKNISWIPDSQTKVFPQDKVVPVGSDITFCCVSQEKVLSALIGRTDCPLIHLDGENVAIKVRNVSASASSGTNVVFITEDDIFGTVIFAGYPPDTPQGSQLNCETHDLKEIICSWNPGRVTALVGPRATSYTLVESFSGKYVRLKRAEAPTNESYQLLFQMLPNQEIYNFTLNAHNPLGRSQSTILVNITEKVYPHTPTSFKVKDINSTAVKLSWHLPGNFAKINFLCEIEIKKSNSVQEQRNVTIKGVENSSYLVALDKLNPYTLYTFRIRCSTETFWKWSKWSNKKQHLTTEASGSGSGSDKTHTCPPCPAPELLGGPSVFLFPPKPKDTLMISRTPEVTCVVVDVSHEDPQVKFNWYVDGVQVHNAKTKPREQQYNSTYRVVSVLTVLHQNWLDGKEYKCKVSNKALPAPIEKTISKAKGQPREPQVYTLPPSREEMTKNQVSLTCLVKGFYPSDIAVEWESNGQPENNYKTTPPVLDSDGSFFLYSKLTVDKSRWQQGNVFSCSVMHEALHNHYTQKSLSLSPGK
Broadly, the EC50 (read off the curve) is the midpoint of the concentration-response curve. A higher EC50 (read off the curve) goes with lower potency in that assay. Usually Kd stands for a measure of binding affinity in units of concentration. In the case of B1, the “IC50, inhibition of LIF derived luciferase activity in HeLa STAT3 luciferase reporter cells” value in [1] is 0.035 nM. In addition, the “fold improvement in IC50 over LIFR WT Fc, inhibition of LIF derived luciferase activity in HeLa reporter cells” value in assay [1] was 53 fold. Also, the concentration for a half-maximal effect (EC50 (read off the curve)) in assay [2] was roughly 0.05 nM. Also, the “fold improvement in affinity over LIFR-WT-Fc” value in [3] stood at 43 fold. In addition, the values for the Kd in assay [4] and in assay [5] were 0.0231 nM and 0.023 nM, respectively. Besides, the binding result in assay [6] and in [7] was “no binding” throughout.

B2: gp130 ELDME variant displayed on the surface of yeast (receptor)
chain: LPPEKPKNLSCIVNEGKKMRCEWDRGRETHLETNFTLKSEWATHELADCKAKRDTPTSCTVDYSTVYFVNIEVWVEAENALGKVTSDHINFDPVDKVKPNPPHNLSVINSEELSSILKLTWTNPSIKSVMILKYNIQYRTKDASTWSQIPPEDTASTRSSFTVQDLKPFTEYVFRIRCMKEDGEGYWSDWSEEASGITYED
notes: also called K45E-F46L-Y95D-I130M-K184E
Take B2: binding in assay [8] was characterised by a dissociation constant (Kd) of 5 nM. For the same molecule, the “fold higher affinity compared to wild-type (WT)” value in [9] was 12 fold.

B3: gp130 CBM domain (ELDME) Fc fusion homodimer (Fc fusion)
chain: LPPEKPKNLSCIVNEGKKMRCEWDRGRETHLETNFTLKSEWATHELADCKAKRDTPTSCTVDYSTVYFVNIEVWVEAENALGKVTSDHINFDPVDKVKPNPPHNLSVINSEELSSILKLTWTNPSIKSVMILKYNIQYRTKDASTWSQIPPEDTASTRSSFTVQDLKPFTEYVFRIRCMKEDGEGYWSDWSEEASGITYEDGSGSGSDKTHTCPPCPAPELLGGPSVFLFPPKPKDTLMISRTPEVTCVVVDVSHEDPQVKFNWYVDGVQVHNAKTKPREQQYNSTYRVVSVLTVLHQNWLDGKEYKCKVSNKALPAPIEKTISKAKGQPREPQVYTLPPSREEMTKNQVSLTCLVKGFYPSDIAVEWESNGQPENNYKTTPPVLDSDGSFFLYSKLTVDKSRWQQGNVFSCSVMHEALHNHYTQKSLSLSPGK
notes: also called gp130-ELDME-Fc; gp130 ELDME Fc
Take B3: the binding result is reported as “binds” with human LIF-His, “no binding” in assay [6] and “no binding” in assay [7].

B4: LIFR CBMI-Ig-like-CBMII (VPRVVAID)-gp130 CBM (ELDME) Fc fusion homodimer (Fc fusion)
chain: QKKGAPHDLKCVTNNLQVWNCSWKAPSGTGRGTDYEVCIENRSRSCYQLEKTSIKIPALSHGDYEITINSLHDFGSSTSKFTLNEQNVSLIPDTPEILNLSADFSTSTLYLKWNDRGSVFPHRSNVIWEIKVLRKESMELVKLVTHNTTLNGKDTLHHWSWASDMPLECAIHFVEIRCYIDNLHFSGLEEWSDWSPVKNISWIPDSQTKVFPQDKVVPVGSDITFCCVSQEKVLSALIGRTNCPLIHLDGENVAIKVRNVSASASSGTNVVFITEDDIFGTVIFAGYPPDTPQQLNCETHDLKEIICSWNPGRVTALVGPRATSYTLVESFSGKYVRLKRAEAPTNESYQLLFQMLPNQEIYNFTLNAHNPLGRSQSTILVNITEKVYPHTPTSFKVKDINSTAVKLSWHLPGNFAKINFLCEIEIKKSNSVQEQRNVTIKGVENSSYLVALDKLNPYTLYTFRIRCSTETFWKWSKWSNKKQHLTTEASGGGGSGGGGSGGGGSGGGGSGGGGSLPPEKPKNLSCIVNEGKKMRCEWDRGRETHLETNFTLKSEWATHELADCKAKRDTPTSCTVDYSTVYFVNIEVWVEAENALGKVTSDHINFDPVDKVKPNPPHNLSVINSEELSSILKLTWTNPSIKSVMILKYNIQYRTKDASTWSQIPPEDTASTRSSFTVQDLKPFTEYVFRIRCMKEDGEGYWSDWSEEASGITYEDGSGSGSDKTHTCPPCPAPELLGGPSVFLFPPKPKDTLMISRTPEVTCVVVDVSHEDPQVKFNWYVDGVQVHNAKTKPREQQYNSTYRVVSVLTVLHQNWLDGKEYKCKVSNKALPAPIEKTISKAKGQPREPQVYTLPPSREEMTKNQVSLTCLVKGFYPSDIAVEWESNGQPENNYKTTPPVLDSDGSFFLYSKLTVDKSRWQQGNVFSCSVMHEALHNHYTQKSLSLSPGK
notes: also called LIFR-gp130 Fusion-Fc; LIFR-gp130 V-E fusion Fc
In the case of B4, the “EC50 (read off the curve)” value in [2] is roughly 0.06 nM. Besides, the Kd in assay [10] was 30.8 nM. Moreover, the binding result in [6] and in assay [7] was “no binding” in each case.

B5: LIFR VPRVVAID variant displayed on the surface of yeast (receptor)
chain: QKKGAPHDLKCVTNNLQVWNCSWKAPSGTGRGTDYEVCIENRSRSCYQLEKTSIKIPALSHGDYEITINSLHDFGSSTSKFTLNEQNVSLIPDTPEILNLSADFSTSTLYLKWNDRGSVFPHRSNVIWEIKVLRKESMELVKLVTHNTTLNGKDTLHHWSWASDMPLECAIHFVEIRCYIDNLHFSGLEEWSDWSPVKNISWIPDSQTKVFPQDKVVPVGSDITFCCVSQEKVLSALIGRTNCPLIHLDGENVAIKVRNVSASASSGTNVVFITEDDIFGTVIFAGYPPDTPQQLNCETHDLKEIICSWNPGRVTALVGPRATSYTLVESFSGKYVRLKRAEAPTNESYQLLFQMLPNQEIYNFTLNAHNPLGRSQSTILVNITEKVYPHTPTSFKVKDINSTAVKLSWHLPGNFAKINFLCEIEIKKSNSVQEQRNVTIKGVENSSYLVALDKLNPYTLYTFRIRCSTETFWKWSKWSNKKQHLTTEAS
notes: also called I217V-L218P-H240R-I257V-I206V-V262A-T2711-N277D
Turning to B5, the Kd in assay [8] worked out at 0.03 nM. The “fold higher affinity compared to wild-type (WT)” value in assay [11] turned out to be 32 fold.
